Source: patent US20030099656A1 (published 2003)

Assays:
[1] = molecular target: T1, ClfA on S. aureus strain 451 SAL4 cells (Staphylococcus aureus strain 451 Sal 4); experiment: flow cytometry, 3 hr culture
T1 construct: whole, on cells
Experimental: (§1) As well, Newman ClfA::emr (ClfA knockout) and NewmanSpa::kan (Protein A knockout) were analyzed in the same manner as specificity controls. Following incubation with antibody, bacterial cells were incubated with Goat-F_{(ab′)2}-Anti-Mouse-F_{(ab′)2}-FITC which served as the detection antibody. […] For each bacterial strain, 10,000 events were collected and measured.

[2] = molecular target: T2, ClfA on S. aureus strain Newman cells (wild type) (Staphylococcus aureus strain Newman, UniProt Q53653 40-899); experiment: flow cytometry, 3 hr culture
T2 construct: whole, on cells; also called Newman WT; Newman-WT
Experimental: as §1

[3] = molecular target: T3, ClfA on S. aureus strain 49 Europe cells (Staphylococcus aureus strain 49); experiment: flow cytometry, 3 hr culture
T3 construct: whole, on cells
Experimental: as §1

[4] = molecular target: T4, ClfA on S. aureus strain 189 Japan cells (Staphylococcus aureus strain 189); experiment: flow cytometry, 3 hr culture
T4 construct: whole, on cells
Experimental: as §1

[5] = molecular target: T5, ClfA on S. aureus strain 206 SAL5 cells (Staphylococcus aureus strain 206 Sal5); experiment: flow cytometry, 3 hr culture
T5 construct: whole, on cells
Experimental: as §1

[6] = molecular target: T6, ClfA on S. aureus strain 67-0 cells (MRSA) (Staphylococcus aureus strain 67-0); experiment: flow cytometry, 3 hr culture
T6 construct: whole, on cells
Experimental: as §1

[7] = molecular target: T7, ClfA on S. aureus strain 397 SAL6 cells (Staphylococcus aureus strain 397 Sal 6); experiment: flow cytometry, 3 hr culture
T7 construct: whole, on cells
Experimental: as §1

[8] = molecular target: T8, ClfA on S. aureus strain 560 SAL 1 cells (Staphylococcus aureus strain 560 Sal 1); experiment: flow cytometry, 3 hr culture
T8 construct: whole, on cells
Experimental: as §1

[9] = molecular target: T9, ClfA on S. aureus strain 203 SAL2 cells (Staphylococcus aureus strain 203 Sal 2); experiment: flow cytometry, 3 hr culture
T9 construct: whole, on cells
Experimental: as §1

[10] = molecular target: T10, ClfA on S. aureus strain 4046 USA cells (Staphylococcus aureus strain 4046); experiment: flow cytometry, 3 hr culture
T10 construct: whole, on cells
Experimental: as §1

[11] = molecular target: T11, ClfA on S. aureus strain 203 Singapore cells (Staphylococcus aureus strain 203); experiment: flow cytometry, 3 hr culture
T11 construct: whole, on cells
Experimental: as §1

[12] = molecular target: T12, SdrG (UniProt Q9KI13 50-597); experiment: ELISA, SdrG
T12 sequence (looked up): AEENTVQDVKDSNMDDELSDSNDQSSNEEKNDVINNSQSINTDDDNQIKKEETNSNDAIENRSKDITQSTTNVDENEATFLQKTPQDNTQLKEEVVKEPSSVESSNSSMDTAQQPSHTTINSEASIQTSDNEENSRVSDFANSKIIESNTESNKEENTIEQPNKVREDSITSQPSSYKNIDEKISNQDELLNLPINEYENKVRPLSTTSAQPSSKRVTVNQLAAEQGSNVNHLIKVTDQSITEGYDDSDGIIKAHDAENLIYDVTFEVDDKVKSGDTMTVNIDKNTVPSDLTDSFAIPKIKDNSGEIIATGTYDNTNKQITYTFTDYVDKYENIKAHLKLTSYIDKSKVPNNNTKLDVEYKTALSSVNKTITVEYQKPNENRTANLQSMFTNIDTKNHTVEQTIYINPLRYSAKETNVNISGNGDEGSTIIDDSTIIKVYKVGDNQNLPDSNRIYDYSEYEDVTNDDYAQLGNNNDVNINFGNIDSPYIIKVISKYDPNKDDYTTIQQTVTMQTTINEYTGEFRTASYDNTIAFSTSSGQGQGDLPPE

[13] = molecular target: T1, ClfA on S. aureus strain 451 SAL4 cells; experiment: flow cytometry, overnight culture
Experimental: as §1

[14] = molecular target: T2, ClfA on S. aureus strain Newman cells …; experiment: flow cytometry, overnight culture
Experimental: as §1

[15] = molecular target: T3, ClfA on S. aureus strain 49 Europe cells; experiment: flow cytometry, overnight culture
Experimental: as §1

[16] = molecular target: T4, ClfA on S. aureus strain 189 Japan cells; experiment: flow cytometry, overnight culture
Experimental: as §1

[17] = molecular target: T5, ClfA on S. aureus strain 206 SAL5 cells; experiment: flow cytometry, overnight culture
Experimental: as §1

[18] = molecular target: T6, ClfA on S. aureus strain 67-0 cells …; experiment: flow cytometry, overnight culture
Experimental: as §1

[19] = molecular target: T7, ClfA on S. aureus strain 397 SAL6 cells; experiment: flow cytometry, overnight culture
Experimental: as §1

[20] = molecular target: T8, ClfA on S. aureus strain 560 SAL 1 cells; experiment: flow cytometry, overnight culture
Experimental: as §1

[21] = molecular target: T9, ClfA on S. aureus strain 203 SAL2 cells; experiment: flow cytometry, overnight culture
Experimental: as §1

[22] = molecular target: T10, ClfA on S. aureus strain 4046 USA cells; experiment: flow cytometry, overnight culture
Experimental: as §1

[23] = molecular target: T11, ClfA on S. aureus strain 203 Singapore …; experiment: flow cytometry, overnight culture
Experimental: as §1

[24] = molecular target: T2, ClfA on S. aureus strain Newman cells …; experiment: flow cytometry on S. aureus cells (FIG. 3)

T2 sequence (Q53653 40-899): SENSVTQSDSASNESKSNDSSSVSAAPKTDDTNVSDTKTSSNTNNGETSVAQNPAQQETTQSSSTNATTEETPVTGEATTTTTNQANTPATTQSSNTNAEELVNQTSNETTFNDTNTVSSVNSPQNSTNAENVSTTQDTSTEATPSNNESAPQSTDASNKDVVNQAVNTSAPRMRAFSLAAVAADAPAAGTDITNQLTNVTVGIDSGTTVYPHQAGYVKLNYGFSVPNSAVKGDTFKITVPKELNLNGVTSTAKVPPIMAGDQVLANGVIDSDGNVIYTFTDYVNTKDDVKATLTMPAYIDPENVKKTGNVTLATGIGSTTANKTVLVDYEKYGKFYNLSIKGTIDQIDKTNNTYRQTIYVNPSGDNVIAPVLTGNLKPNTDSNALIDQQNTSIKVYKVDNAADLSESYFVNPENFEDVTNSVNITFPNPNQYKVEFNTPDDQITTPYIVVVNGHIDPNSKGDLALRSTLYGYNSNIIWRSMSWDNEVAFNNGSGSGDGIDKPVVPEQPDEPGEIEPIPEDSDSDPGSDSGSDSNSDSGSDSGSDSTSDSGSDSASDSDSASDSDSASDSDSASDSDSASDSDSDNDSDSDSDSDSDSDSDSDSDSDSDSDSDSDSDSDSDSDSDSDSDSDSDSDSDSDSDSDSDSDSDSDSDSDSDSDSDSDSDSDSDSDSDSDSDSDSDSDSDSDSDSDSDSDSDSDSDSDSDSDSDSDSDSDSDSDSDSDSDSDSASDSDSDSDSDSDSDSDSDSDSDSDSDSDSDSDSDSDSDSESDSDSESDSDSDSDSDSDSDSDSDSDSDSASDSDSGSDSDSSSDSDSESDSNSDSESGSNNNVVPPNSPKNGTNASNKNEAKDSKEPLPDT

B1: ClfA monoclonal antibody 12-9 (antibody, V domains shown)
VH: QVQLKESGPGLVAPSQSLSITCAISGFSLSRYSVHWVRQPPGKGLEWLGMIWGGGNTDYNSALKSRLSISKDNSKSQVFLKMNSLQTDDTAMYYCARKGEFYYGYDGFVYWGQGTLVTVSA
VL: NIMMTQSPSSLAVSAGEKVTMSCKSSQSVLYSSNQKNYLAWYQQKPGQSPKLLIYWASTRESGVPDRFTGSGSGTDFTLTISSVQAEDLAVYYCHQYLSSYTFGGGTKLEIK
notes: also called F12-9; Mab 12-9
With B1 the “Fluorescence Intensity (Geometric Mean)” value [1] was 1.1, the “Fluorescence Intensity (Geometric Mean)” value [2] was 30.8 and the “Fluorescence Intensity (Geometric Mean)” value [3] was 7.3. For the same binder, the “Fluorescence Intensity (Geometric Mean)” value [4] was 11, the “Fluorescence Intensity (Geometric Mean)” value [5] was 8.8 and the “Fluorescence Intensity (Geometric Mean)” value [6] was 11.2. For the same binder, the “Fluorescence Intensity (Geometric Mean)” value [7] was 28.9, the “Fluorescence Intensity (Geometric Mean)” value [8] was 28.8 and the “Fluorescence Intensity (Geometric Mean)” value [9] was 16.1. For the same binder, the “Fluorescence Intensity (Geometric Mean)” value [10] was 27.7, the “Fluorescence Intensity (Geometric Mean)” value [11] was 22.1 and the binding result [12] was “no binding”. For the same binder, the “Fluorescence Intensity (Geometric Mean)” value [13] was 12.9, the “Fluorescence Intensity (Geometric Mean)” value [14] was 44.3 and the “Fluorescence Intensity (Geometric Mean)” value [15] was 11.3. For the same binder, the “Fluorescence Intensity (Geometric Mean)” value [16] was 15.7, the “Fluorescence Intensity (Geometric Mean)” value [17] was 33.5 and the “Fluorescence Intensity (Geometric Mean)” value [18] was 27.6. For the same binder, the “Fluorescence Intensity (Geometric Mean)” value [19] was 62.1, the “Fluorescence Intensity (Geometric Mean)” value [20] was 36.1 and the “Fluorescence Intensity (Geometric Mean)” value [21] was 40.4. The “Fluorescence Intensity (Geometric Mean)” value [22] was 23.5 and the “Fluorescence Intensity (Geometric Mean)” value [23] was 15.4.

B2: Chimeric monoclonal antibody 12-9 (antibody, V domains shown)
VH: B1 VH
VL: B1 VL
notes: also called Chimeric 12-9; recombinant chimeric 12-9
B2: binds [24].
